Changes are numbered by the printed parent chain.
B1: BAP049-hum10 (antibody, human IgG4 S228P, kappa)
heavy: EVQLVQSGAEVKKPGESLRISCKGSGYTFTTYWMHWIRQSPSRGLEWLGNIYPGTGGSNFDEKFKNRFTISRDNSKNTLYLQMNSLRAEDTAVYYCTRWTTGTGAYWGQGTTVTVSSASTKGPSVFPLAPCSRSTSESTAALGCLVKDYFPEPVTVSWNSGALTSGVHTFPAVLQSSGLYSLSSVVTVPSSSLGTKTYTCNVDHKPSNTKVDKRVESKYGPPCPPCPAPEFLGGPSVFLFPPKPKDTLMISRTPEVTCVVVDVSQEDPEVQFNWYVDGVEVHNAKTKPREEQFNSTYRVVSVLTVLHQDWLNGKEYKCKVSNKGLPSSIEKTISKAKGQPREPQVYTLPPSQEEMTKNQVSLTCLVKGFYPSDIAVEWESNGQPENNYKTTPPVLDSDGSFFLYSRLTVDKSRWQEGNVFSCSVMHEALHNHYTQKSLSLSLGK
light: EIVLTQSPATLSLSPGERATLSCKSSQSLLDSGNQKNFLTWYQQKPGQAPRLLIYWASTRESGVPSRFSGSGSGTDFTFTISSLEAEDAATYYCQNDYSYPYTFGQGTKVEIKRTVAAPSVFIFPPSDEQLKSGTASVVCLLNNFYPREAKVQWKVDNALQSGNSQESVTEQDSKDSTYSLSSTLTLSKADYEKHKVYACEVTHQGLSSPVTKSFNRGEC
notes: also called humanized BAP049 clone hum10
B2: BAP049-hum15 (antibody, human IgG4 S228P, kappa)
heavy: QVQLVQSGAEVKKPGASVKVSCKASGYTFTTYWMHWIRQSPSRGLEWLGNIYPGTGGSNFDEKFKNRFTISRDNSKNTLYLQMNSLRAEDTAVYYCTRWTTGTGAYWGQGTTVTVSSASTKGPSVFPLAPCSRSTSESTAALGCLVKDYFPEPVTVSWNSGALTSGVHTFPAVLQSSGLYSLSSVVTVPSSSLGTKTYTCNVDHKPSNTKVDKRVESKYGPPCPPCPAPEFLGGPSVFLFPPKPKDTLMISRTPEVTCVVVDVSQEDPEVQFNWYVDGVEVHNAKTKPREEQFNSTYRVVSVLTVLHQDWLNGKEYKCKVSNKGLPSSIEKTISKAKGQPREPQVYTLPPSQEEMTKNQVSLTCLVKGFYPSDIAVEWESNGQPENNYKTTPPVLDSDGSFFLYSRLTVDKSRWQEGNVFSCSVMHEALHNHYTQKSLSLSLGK
light: B1 light with A9D, T10F, L11Q, L13V, S14T, G16K, R18K, A19V, L21I, S22T
notes: also called Clone No. 15
B3: BAP049-hum11 (antibody, human IgG4 S228P, kappa)
heavy: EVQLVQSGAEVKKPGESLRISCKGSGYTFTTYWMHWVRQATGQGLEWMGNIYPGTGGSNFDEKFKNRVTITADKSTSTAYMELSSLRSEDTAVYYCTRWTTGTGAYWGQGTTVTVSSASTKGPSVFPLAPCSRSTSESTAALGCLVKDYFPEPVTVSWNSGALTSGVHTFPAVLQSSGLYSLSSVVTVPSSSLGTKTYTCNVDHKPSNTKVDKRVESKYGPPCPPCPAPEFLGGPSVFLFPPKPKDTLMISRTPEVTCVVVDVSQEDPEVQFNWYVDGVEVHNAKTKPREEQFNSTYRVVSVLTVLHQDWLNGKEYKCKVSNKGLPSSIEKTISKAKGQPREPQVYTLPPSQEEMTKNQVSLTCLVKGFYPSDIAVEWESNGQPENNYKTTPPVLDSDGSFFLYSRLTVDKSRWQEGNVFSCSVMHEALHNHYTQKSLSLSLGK
light: B1 light
notes: also called humanized BAP049 clone hum11
B4: BAP049-hum06 (antibody, human IgG4 S228P, kappa)
heavy: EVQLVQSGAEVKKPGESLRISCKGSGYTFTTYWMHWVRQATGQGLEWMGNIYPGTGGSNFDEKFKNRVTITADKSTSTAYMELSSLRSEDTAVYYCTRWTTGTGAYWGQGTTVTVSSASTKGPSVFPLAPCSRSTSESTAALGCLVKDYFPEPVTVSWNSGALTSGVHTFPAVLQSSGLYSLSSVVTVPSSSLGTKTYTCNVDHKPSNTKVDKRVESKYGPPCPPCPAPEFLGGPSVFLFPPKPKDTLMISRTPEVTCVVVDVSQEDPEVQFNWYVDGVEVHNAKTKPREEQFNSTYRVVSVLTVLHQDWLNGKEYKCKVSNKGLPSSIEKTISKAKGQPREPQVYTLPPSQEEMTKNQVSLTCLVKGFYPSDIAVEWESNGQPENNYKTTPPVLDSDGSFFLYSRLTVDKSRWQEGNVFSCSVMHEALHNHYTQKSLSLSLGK
light: DIVMTQTPLSLPVTPGEPASISCKSSQSLLDSGNQKNFLTWYQQKPGQAPRLLIYWASTRESGVPSRFSGSGSGTDFTFTISSLEAEDAATYYCQNDYSYPYTFGQGTKVEIKRTVAAPSVFIFPPSDEQLKSGTASVVCLLNNFYPREAKVQWKVDNALQSGNSQESVTEQDSKDSTYSLSSTLTLSKADYEKHKVYACEVTHQGLSSPVTKSFNRGEC
notes: also called Clone No. 6
B5: BAP049-hum14 (antibody, human IgG4 S228P, kappa)
heavy: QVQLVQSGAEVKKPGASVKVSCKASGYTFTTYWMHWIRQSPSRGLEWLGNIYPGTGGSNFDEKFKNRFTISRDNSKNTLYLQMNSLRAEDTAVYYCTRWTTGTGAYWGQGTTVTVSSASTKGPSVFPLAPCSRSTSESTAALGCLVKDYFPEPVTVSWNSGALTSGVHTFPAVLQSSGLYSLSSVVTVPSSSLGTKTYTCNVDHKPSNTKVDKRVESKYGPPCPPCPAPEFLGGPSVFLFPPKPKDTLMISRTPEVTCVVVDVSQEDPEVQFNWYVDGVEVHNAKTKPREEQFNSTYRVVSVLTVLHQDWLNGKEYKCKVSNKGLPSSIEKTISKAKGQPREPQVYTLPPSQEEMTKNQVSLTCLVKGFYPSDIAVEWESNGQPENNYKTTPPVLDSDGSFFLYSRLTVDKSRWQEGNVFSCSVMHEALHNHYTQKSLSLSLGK
light: B1 light
notes: also called Clone No. 14
B6: BAP049-hum09 (antibody, human IgG4 S228P, kappa)
heavy: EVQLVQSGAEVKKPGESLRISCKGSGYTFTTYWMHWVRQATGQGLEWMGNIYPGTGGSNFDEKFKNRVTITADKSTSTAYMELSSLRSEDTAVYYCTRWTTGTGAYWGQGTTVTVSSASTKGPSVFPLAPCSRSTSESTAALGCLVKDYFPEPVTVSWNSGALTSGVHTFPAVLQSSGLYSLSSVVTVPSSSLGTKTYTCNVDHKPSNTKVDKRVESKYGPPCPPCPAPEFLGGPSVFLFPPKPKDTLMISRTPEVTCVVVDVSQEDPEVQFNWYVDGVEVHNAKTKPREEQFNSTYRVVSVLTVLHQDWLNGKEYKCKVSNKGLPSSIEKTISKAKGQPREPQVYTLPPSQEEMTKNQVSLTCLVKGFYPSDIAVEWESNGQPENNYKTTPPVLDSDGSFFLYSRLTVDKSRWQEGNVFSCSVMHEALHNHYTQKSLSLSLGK
light: B1 light with A9D, T10F, L11Q, L13V, S14T, G16K, R18K, A19V, L21I, S22T
notes: also called humanized BAP049 clone hum09
B7: BAP049-hum05 (antibody, human IgG4 S228P, kappa, V domains shown)
VH: EVQLVQSGAEVKKPGESLRISCKGSGYTFTTYWMHWVRQATGQGLEWMGNIYPGTGGSNFDEKFKNRVTITADKSTSTAYMELSSLRSEDTAVYYCTRWTTGTGAYWGQGTTVTVSS
VL: EIVLTQSPATLSLSPGERATLSCKSSQSLLDSGNQKNFLTWYQQKPGKAPKLLIYWASTRESGVPSRFSGSGSGTDFTFTISSLQPEDIATYYCQNDYSYPYTFGQGTKVEIKR
notes: also called humanized BAP049 clone hum05
B8: BAP049-hum01 (antibody, human IgG4 S228P, kappa, V domains shown)
VH: B7 VH
VL: B7 VL with K48Q, K51R, D76E, F79L, E87D, I89F
notes: also called humanized BAP049 clone hum01
B9: BAP049-hum04 (antibody, human IgG4 S228P, kappa, V domains shown)
VH: EVQLVQSGAEVKKPGESLRISCKGSGYTFTTYWMHWIRQSPSRGLEWLGNIYPGTGGSNFDEKFKNRFTISRDNSKNTLYLQMNSLRAEDTAVYYCTRWTTGTGAYWGQGTTVTVSS
VL: B7 VL
notes: also called Clone No. 4
B10: BAP049-hum08 (antibody, human IgG4 S228P, kappa)
heavy: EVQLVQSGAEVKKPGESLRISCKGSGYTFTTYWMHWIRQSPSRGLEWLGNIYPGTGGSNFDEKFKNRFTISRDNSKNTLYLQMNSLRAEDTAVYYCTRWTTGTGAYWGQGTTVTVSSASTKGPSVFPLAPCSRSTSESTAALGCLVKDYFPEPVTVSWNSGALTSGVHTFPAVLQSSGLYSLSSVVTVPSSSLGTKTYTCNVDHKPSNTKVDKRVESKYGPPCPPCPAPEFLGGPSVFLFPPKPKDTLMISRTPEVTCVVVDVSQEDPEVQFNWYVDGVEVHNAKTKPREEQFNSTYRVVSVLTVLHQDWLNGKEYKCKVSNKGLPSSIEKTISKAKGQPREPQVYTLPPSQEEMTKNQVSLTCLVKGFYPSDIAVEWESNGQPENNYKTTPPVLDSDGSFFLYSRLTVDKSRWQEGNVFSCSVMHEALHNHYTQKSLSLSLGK
light: B1 light with A9D, T10F, L11Q, L13V, S14T, G16K, R18K, A19V, L21I, S22T
notes: also called humanized BAP049 clone hum08
B11: BAP049-hum07 (antibody, human IgG4 S228P, kappa)
heavy: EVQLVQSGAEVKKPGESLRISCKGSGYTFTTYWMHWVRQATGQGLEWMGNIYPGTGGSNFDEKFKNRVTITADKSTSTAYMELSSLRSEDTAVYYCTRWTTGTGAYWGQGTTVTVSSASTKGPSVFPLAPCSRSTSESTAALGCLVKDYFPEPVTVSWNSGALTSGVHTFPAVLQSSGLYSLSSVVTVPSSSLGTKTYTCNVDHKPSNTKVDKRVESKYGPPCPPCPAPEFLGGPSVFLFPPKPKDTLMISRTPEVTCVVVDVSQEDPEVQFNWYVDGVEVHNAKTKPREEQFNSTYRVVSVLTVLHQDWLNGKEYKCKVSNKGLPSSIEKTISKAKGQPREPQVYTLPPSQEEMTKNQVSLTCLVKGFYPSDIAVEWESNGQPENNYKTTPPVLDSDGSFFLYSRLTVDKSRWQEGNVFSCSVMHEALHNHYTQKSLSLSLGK
light: B1 light with Q48K, R51K
notes: also called Clone No. 7
B12: BAP049-hum13 (antibody, human IgG4 S228P, kappa)
heavy: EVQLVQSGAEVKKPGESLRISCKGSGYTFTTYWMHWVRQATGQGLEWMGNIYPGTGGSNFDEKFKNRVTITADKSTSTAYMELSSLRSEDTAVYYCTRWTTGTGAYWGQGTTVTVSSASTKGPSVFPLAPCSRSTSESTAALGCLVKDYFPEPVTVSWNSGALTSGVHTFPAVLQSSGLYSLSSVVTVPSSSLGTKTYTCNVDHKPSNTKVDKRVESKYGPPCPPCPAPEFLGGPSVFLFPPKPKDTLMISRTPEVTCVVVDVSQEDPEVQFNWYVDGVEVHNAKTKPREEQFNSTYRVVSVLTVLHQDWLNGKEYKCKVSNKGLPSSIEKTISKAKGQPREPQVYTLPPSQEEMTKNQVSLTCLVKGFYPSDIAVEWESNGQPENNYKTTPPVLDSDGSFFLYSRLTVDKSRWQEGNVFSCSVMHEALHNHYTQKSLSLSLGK
light: B4 light with I2V, T7S, P15L, E17Q, Q48K, R51K
notes: also called Clone No. 13
B13: BAP049-hum02 (antibody, human IgG4 S228P, kappa, V domains shown)
VH: B7 VH
VL: DIQMTQSPSSLSASVGDRVTITCKSSQSLLDSGNQKNFLTWYQQKPGQAPRLLIYWASTRESGIPPRFSGSGYGTDFTLTINNIESEDAAYYFCQNDYSYPYTFGQGTKVEIKR
notes: also called Clone No. 2
B14: BAP049-hum12 (antibody, human IgG4 S228P, kappa, V domains shown)
VH: B7 VH
VL: DIQMTQSPSSLSASVGDRVTITCKSSQSLLDSGNQKNFLTWYLQKPGQSPQLLIYWASTRESGVPSRFSGSGSGTDFTFTISSLEAEDAATYYCQNDYSYPYTFGQGTKVEIKR
notes: also called Clone No. 12
B15: BAP049-hum16 (antibody, human IgG4 S228P, kappa, V domains shown)
VH: B9 VH with I37V, S40A, S42G, R43Q, L48M
VL: EIVLTQSPDFQSVTPKEKVTITCKSSQSLLDSGNQKNFLTWYQQKPGQAPRLLIYWASTRESGVPSRFSGSGSGTDFTFTISSLEAEDAATYYCQNDYSYPYTFGQGTKVEIKR
notes: also called Clone No. 16
B16: BAP049-hum03 (antibody, human IgG4 S228P, kappa, V domains shown)
VH: B9 VH
VL: B13 VL
notes: also called Clone No. 3
B17: Chi mAb (Tyr) (antibody, human IgG4 S228P, kappa, V domains shown)
VH: QVQLQQSGSELVRPGASVKLSCKASGYTFTTYWMHWVRQRPGQGLEWIGNIYPGTGGSNFDEKFKNRTSLTVDTSSTTAYMHLASLTSEDSAVYYCTRWTTGTGAYWGQGTTVTVSS
VL: DIVMTQSPSSLTVTAGEKVTMSCKSSQSLLDSGNQKNFLTWYQQKPGQPPKLLIFWASTRESGVPDRFTGSGSVTDFTLTISSVQAEDLAVYYCQNDYSYPYTFGQGTKVEIKR
notes: also called BAP049-chi-Y; Chi (Tyr)
B18: Mu mAb (antibody, V domains shown)
VH: B17 VH with T112L, S117A
VL: DIVMTQSPSSLTVTAGEKVTMSCKSSQSLLDSGNQKNFLTWYQQKPGQPPKLLIFWASTRESGVPDRFTGSGSVTDFTLTISSVQAEDLAVYYCQNDYSYPCTFGGGTKLEIK
notes: also called murine anti-PD-1 mAb BAP049; Mu mAb control

What was measured:
[1] = biological target: T1, Programmed Death 1 (PD-1) (UniProt Q15116 25-288, limits assumed); test: rank of the clone in the competition binding assay with labeled murine mAb BAP049, 1st experiment; higher number = worse
T1 sequence (Q15116 25-288 limits assumed): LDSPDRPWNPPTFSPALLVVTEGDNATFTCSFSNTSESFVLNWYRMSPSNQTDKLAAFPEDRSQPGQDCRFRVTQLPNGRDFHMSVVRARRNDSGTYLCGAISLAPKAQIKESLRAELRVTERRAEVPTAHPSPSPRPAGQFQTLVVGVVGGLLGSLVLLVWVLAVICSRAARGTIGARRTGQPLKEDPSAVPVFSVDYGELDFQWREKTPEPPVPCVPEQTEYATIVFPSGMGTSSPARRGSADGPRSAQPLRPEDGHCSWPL

[2] = biological target: T1, Programmed Death 1 (PD-1); test: rank of the clone in the competition binding assay with labeled murine mAb BAP049, 2nd experiment; higher number = worse
[3] = biological target: T1, Programmed Death 1 (PD-1); test: rank of the clone among the 16 humanized clones by FACS binding data; higher number = worse
[4] = biological target: T1, Programmed Death 1 (PD-1); test: FACS blocking of ligand-Ig binding to PD-1, MFI of bound ligand; ligand by the legend paragraph 125 'PD-L1-Ig and PD-L2-Ig' (no ligand named on the sheet; FIG. 8B is PD-L2-Ig, so most likely PD-L1-Ig); cells not named

Binder | Competition Binding, 1st exp. (rank) [1] | Competition Binding, 2nd exp. (rank) [2] | Ranking, FACS data [3] | IC50 (read off the curve) [4]
B1 | 6 | > 4 | 7 | –
B2 | 7 | 15 | 6 | –
B3 | 4 | > 4 | 6 | –
B4 | 7 | 3 | 1 | –
B5 | 7 | 15 | 16 | –
B6 | 2 | 4 | 7 | ~0.7 µg/mL
B7 | 5 | > 4 | 5 | –
B8 | 7 | 2 | 2 | –
B9 | 15 | 15 | 14 | –
B10 | 7 | 4 | 7 | –
B11 | 7 | > 4 | 4 | –
B12 | 1 | 1 | 6 | –
B13 | 3 | 2 | 6 | –
B14 | 8 | 16 | 3 | –
B15 | 16 | 15 | 15 | –
B16 | 8 | 14 | 7 | –
B17 | – | – | – | ~0.8 µg/mL
B18 | – | – | – | ~0.6 µg/mL

Source: patent US20210121563A1 (Novartis, published 2021)
